Experimental findings from IntAct's records for PubMed 35512704 are described below.

B1: Mothers against decapentaplegic homolog 4 (Homo sapiens), Q13485 (parent)
chain: MDNMSITNTPTSNDACLSIVHSLMCHRQGGESETFAKRAIESLVKKLKEKKDELDSLITAITTNGAHPSKCVTIQRTLDGRLQVAGRKGFPHVIYARLWRWPDLHKNELKHVKYCQYAFDLKCDSVCVNPYHYERVVSPGIDLSGLTLQSNAPSSMMVKDEYVHDFEGQPSLSTEGHSIQTIQHPPSNRASTETYSTPALLAPSESNATSTANFPNIPVASTSQPASILGGSHSEGLLQIASGPQPGQQQNGFTGQPATYHHNSTTTWTGSRTAPYTPNLPHHQNGHLQHHPPMPPHPGHYWPVHNELAFQPPISNHPAPEYWCSIAYFEMDVQVGETFKVPSSCPIVTVDGYVDPSGGDRFCLGQLSNVHRTEAIERARLHIGKGVQLECKGEGDVWVRCLSDHAVFVQSYYLDREAGRAPGDAVHKIYPSAYIKVFDLRQCHRQMQQQAATAQAAAAAQAAAVAGNIPGPGSVGGIAPAISLSAAAGIGVDDLRRLCILRMSFVKGWGPDYPRQSIKETPCWIEIHLHRALQLLDEVLHTMPIADPQPLD
partner: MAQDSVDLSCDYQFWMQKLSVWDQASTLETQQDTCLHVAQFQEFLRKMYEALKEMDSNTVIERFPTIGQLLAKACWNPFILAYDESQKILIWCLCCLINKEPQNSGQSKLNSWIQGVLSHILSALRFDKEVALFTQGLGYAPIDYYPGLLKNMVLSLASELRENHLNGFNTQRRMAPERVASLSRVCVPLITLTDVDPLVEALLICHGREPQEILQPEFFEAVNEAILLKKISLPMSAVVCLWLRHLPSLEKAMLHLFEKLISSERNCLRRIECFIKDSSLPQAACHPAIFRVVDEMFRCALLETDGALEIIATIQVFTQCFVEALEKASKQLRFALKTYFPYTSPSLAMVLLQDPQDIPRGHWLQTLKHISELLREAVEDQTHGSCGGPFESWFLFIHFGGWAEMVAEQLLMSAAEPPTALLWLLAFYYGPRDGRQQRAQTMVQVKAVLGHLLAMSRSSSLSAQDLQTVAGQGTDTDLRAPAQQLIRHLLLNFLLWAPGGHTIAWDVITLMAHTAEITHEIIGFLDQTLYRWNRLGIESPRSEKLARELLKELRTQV
B2: Mothers against decapentaplegic homolog 4 (Homo sapiens), Q13485 (parent)
chain: B1 chain
partner: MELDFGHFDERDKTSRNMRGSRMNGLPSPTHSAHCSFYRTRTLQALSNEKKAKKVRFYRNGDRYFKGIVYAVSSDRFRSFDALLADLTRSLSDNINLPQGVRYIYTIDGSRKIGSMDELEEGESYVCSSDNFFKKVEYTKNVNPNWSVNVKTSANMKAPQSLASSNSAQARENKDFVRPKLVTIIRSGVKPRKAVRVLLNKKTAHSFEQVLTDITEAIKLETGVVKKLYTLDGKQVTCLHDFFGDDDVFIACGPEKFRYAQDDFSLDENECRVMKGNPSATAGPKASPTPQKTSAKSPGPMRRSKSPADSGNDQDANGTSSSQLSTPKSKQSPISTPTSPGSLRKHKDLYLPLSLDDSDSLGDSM
B3: Mothers against decapentaplegic homolog 4 (Homo sapiens), Q13485 (parent)
chain: B1 chain
partner: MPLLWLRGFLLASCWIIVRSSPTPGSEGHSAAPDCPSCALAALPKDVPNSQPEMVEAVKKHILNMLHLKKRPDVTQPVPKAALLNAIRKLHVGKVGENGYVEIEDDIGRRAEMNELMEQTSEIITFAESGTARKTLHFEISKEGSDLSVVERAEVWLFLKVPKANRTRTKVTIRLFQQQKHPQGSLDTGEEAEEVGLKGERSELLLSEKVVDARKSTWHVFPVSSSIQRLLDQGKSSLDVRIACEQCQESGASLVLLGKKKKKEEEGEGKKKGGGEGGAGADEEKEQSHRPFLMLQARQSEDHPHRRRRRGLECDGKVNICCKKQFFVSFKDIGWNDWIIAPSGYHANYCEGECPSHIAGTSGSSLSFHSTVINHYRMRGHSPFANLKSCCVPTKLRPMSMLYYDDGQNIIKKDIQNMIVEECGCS
B4: 14-3-3 protein zeta/delta (Homo sapiens), P63104 (parent)
chain: MDKNELVQKAKLAEQAERYDDMAACMKSVTEQGAELSNEERNLLSVAYKNVVGARRSSWRVVSSIEQKTEGAEKKQQMAREYREKIETELRDICNDVLSLLEKFLIPNASQAESKVFYLKMKGDYYRYLAEVAAGDDKKGIVDQSQQAYQEAFEISKKEMQPTHPIRLGLALNFSVFYYEILNSPEKACSLAKTAFDEAIAELDTLSEESYKDSTLIMQLLRDNLTLWTSDTQGDEAEAGEGGEN
B5: Mothers against decapentaplegic homolog 4 (Homo sapiens), Q13485 (parent)
chain: B1 chain
partner: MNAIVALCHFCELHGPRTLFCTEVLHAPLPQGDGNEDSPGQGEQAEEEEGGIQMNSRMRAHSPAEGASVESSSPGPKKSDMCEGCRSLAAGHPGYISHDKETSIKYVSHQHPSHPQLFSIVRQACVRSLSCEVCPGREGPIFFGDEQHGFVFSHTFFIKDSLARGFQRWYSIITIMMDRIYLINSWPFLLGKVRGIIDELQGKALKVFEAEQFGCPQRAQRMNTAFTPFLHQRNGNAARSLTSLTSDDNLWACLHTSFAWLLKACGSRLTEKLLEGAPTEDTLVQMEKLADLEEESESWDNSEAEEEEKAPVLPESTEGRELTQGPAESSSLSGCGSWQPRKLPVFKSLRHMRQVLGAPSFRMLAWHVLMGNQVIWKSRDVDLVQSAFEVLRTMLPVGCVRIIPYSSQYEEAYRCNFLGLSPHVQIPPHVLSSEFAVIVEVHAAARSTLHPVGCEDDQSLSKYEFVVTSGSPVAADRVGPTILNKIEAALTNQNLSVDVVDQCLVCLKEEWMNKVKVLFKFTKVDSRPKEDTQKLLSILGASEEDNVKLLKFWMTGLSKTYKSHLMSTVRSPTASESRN
B6: Mothers against decapentaplegic homolog 4 (Homo sapiens), Q13485 (parent)
chain: B1 chain
partner: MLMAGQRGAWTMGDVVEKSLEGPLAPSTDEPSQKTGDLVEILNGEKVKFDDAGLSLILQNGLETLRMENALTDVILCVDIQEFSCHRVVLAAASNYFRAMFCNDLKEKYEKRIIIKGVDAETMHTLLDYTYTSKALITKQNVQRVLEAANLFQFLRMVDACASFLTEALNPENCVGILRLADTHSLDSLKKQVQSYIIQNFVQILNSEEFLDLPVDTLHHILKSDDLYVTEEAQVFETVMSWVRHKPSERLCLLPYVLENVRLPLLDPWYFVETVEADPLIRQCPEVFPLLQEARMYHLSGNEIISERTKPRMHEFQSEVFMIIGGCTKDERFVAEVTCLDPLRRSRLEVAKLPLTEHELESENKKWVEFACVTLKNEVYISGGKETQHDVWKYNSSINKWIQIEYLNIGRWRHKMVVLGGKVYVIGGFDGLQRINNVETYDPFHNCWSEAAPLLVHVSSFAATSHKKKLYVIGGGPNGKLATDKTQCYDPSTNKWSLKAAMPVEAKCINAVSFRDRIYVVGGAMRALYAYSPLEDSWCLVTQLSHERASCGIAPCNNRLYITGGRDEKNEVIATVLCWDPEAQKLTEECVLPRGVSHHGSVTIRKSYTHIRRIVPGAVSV
B7: Mothers against decapentaplegic homolog 4 (Homo sapiens), Q13485 (parent)
chain: B1 chain
partner: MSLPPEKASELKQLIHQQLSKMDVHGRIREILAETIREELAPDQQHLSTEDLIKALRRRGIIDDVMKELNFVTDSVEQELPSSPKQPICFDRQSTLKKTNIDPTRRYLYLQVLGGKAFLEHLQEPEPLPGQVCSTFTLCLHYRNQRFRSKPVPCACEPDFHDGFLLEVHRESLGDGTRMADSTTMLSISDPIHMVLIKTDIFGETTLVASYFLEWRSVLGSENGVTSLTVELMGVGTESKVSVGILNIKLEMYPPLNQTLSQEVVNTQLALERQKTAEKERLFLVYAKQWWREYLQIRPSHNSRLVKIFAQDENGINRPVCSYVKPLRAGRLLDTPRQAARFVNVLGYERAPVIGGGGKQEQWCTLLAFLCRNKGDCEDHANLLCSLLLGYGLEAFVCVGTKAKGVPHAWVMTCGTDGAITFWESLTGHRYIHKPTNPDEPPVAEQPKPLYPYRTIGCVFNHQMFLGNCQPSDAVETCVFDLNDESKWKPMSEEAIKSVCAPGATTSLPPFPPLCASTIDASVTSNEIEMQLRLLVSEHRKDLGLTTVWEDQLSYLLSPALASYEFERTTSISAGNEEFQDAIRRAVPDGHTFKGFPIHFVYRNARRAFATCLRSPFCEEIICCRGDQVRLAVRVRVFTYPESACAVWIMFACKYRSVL
B8: Mothers against decapentaplegic homolog 4 (Homo sapiens), Q13485 (parent)
chain: B1 chain
partner: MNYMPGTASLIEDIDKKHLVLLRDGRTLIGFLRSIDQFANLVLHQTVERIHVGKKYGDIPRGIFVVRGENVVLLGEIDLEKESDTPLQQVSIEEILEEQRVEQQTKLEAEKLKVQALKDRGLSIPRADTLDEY

The variants in the first test derive from B1. The settings on record: with fancc_human FANCC.
D351H: the “effect of a mutation on the interaction” value was “with no effect”.

Variants of B2 are the subject of another test. The settings on record: with dcx_human DCX.
For D351H, the “effect of a mutation on the interaction” value is recorded as “with no effect”.

A further test covers variants of B2. The settings on record: with dcx_human DCX. This is another data set of the same source.
On to R361C, for which the “effect of a mutation on the interaction” value is “with no effect”.

A further test covers variants of B2. The following applies: with dcx_human DCX. This is another data set of the same source.
In the case of R361H, the “effect of a mutation on the interaction” value was “with no effect”.

In a further test the parent is B2. The following applies: with dcx_human DCX. This is another data set of the same source.
Consider G386D, for which the “effect of a mutation on the interaction” value is “with no effect”.

The next test covers variants of B3. The following applies: with inhba_human INHBA.
With R361C, the “effect of a mutation on the interaction” value is recorded as “with no effect”.

Variants of B3 are the subject of another test. The following applies: with inhba_human INHBA. The source holds these as a separate data set.
R361H: the “effect of a mutation on the interaction” value is reported as “with no effect”.

In the next test the parent is B3. The following applies: with inhba_human INHBA. This is another data set of the same source.
For D351H, the “effect of a mutation on the interaction” value is recorded as “with no effect”.

In the next test the parent is B3. The settings on record: with inhba_human INHBA. The source holds these as a separate data set.
As to G386D, the “effect of a mutation on the interaction” value is reported as “with no effect”.

A further test covers variants of B4. The settings on record: with braf_human BRAF.
In the case of K49E, the “effect of a mutation on the interaction” value is “disrupting interaction strength”.

Variants of B5 are the subject of a further test. The settings on record: with flcn_human FLCN.
In the case of D351H, the “effect of a mutation on the interaction” value is given as “with no effect”.

Variants of B5 are the subject of the next test. The following applies: with flcn_human FLCN. The source holds these as a separate data set.
For the variant G386D, the “effect of a mutation on the interaction” value is given as “with no effect”.

A further test covers variants of B5. The settings on record: with flcn_human FLCN. This is another data set of the same source.
Regarding R361H, the “effect of a mutation on the interaction” value is reported as “with no effect”.

Variants of B5 are the subject of the next test. The following applies: with flcn_human FLCN. The source holds these as a separate data set.
For R361C, the “effect of a mutation on the interaction” value is “with no effect”.

The variants in the next test derive from B6. The following applies: with klhl6_human KLHL6, Q8WZ60.
In the case of G386D, the “effect of a mutation on the interaction” value is “with no effect”.

Variants of B6 are the subject of a further test. The settings on record: with klhl6_human KLHL6, Q8WZ60. This is another data set of the same source.
In the case of G386D, the “effect of a mutation on the interaction” value is “causing an interaction”.

The variants in a further test derive from B6. The settings on record: with klhl6_human KLHL6, Q8WZ60. The source holds these as a separate data set.
Turning to D351H, the “effect of a mutation on the interaction” value is “with no effect”.

The variants in the next test derive from B6. The settings on record: with klhl6_human KLHL6, Q8WZ60. This is another data set of the same source.
For the variant R361H, the “effect of a mutation on the interaction” value was “with no effect”.

In a further test the parent is B6. The following applies: with klhl6_human KLHL6, Q8WZ60. This is another data set of the same source.
As for R361C, the “effect of a mutation on the interaction” value is “with no effect”.

The variants in the next test derive from B7. The settings on record: with cep76_human CEP76, Q8TAP6.
For the variant D351H, the “effect of a mutation on the interaction” value was “with no effect”.

In the next test the parent is B7. The following applies: with cep76_human CEP76, Q8TAP6. The source holds these as a separate data set.
For the variant R361C, the “effect of a mutation on the interaction” value is “with no effect”.

The next test covers variants of B7. The following applies: with cep76_human CEP76, Q8TAP6. The source holds these as a separate data set.
Take R361H: the “effect of a mutation on the interaction” value is recorded as “with no effect”.

The variants in another test derive from B8. The settings on record: with lsm1_human LSM1, O15116.
Take G386D: the “effect of a mutation on the interaction” value was “with no effect”.
